Experimental data published in FireProtDB (doi:10.1021/bi962163z).

B1: Annexin A5, P08758 (parent)
chain: MAQVLRGTVTDFPGFDERADAETLRKAMKGLGTDEESILTLLTSRSNAQRQEISAAFKTLFGRDLLDDLKSELTGKFEKLIVALMKPSRLYDAYELKHALKGAGTNEKVLTEIIASRTPEELRAIKQVYEEEYGSSLEDDVVGDTSGYYQRMLVVLLQANRDPDAGIDEAQVEQDAQALFQAGELKWGTDEEKFITIFGTRSVSHLRKVFDKYMTISGFQIEETIDRETSGNLEQLLLAVVKSIRSIPAYLAETLYYAMKGAGTDDHTLIRVMVSRSEIDLFNIRKEFRKNFATSLYSMIKGDTSGDYKKALLLLCGEDD

Variants of: B1
Settings: Homo sapiens; pH 8; Thermal; DSC; Tris 50 mM; KCl 100 mM; reversible: no; structure 1AVR; whole UniProt chain shown

Variant | Tm [°C] | unfolding enthalpy (calorimetric) [kcal/mol] | unfolding enthalpy (van 't Hoff) [kcal/mol]
E17G | 52.8 | 164 | 173
